These results are taken from patent US20060104978A1, “Methods and compositions for PDGF-C activation and inhibition” (LUDWIG INSTITUTE FOR CANCER RESEARCH, priority 2003, published 2006).

Test [1] deals with tPA. The test can be described thus: Ni-NTA pull-down of purified tPA by His6-tagged recombinant proteins. It is filed as binding, human. Particulars: Ni-NTA beads coated with His6-tagged protein, 1 μg purified tPA, 2 hours room temperature, eluted with imidazole. Here is the method:
The possibility of a direct protein-protein interaction between tPA and latent PDGF-CC was explored by developing a pull-down assay. Ni-NTA beads were allowed to bind recombinant His6-tagged latent PDGF-CC or PDGF-DD, and purified tPA was added and incubated. Following extensive washings, bound proteins were subsequently eluted with an imidazole-containing buffer, and the eluates were analyzed by immunoblotting using specific antibodies.
To determine a direct protein-protein interaction between tPA and PDGF-CC, His6-tagged recombinant protein species were bound to Ni-NTA-agarose (Qiagen) and then incubated with 1 μg of purified tPA for 2 hours at room temperature. Uncoated and PDGF-DD coated Ni-NTA beads were used as controls. The beads were washed thoroughly, and His6-tagged proteins were specifically eluted with 400 mM imidazole. Eluted proteins were analyzed by SDS-PAGE under reducing conditions and immunoblotted with antibodies against human tPA (see above). The membranes were subsequently stripped and reprobed with specific antibodies.

The subject of test [2] is tPA. The test can be described thus: Cotransfection assay in COS-1 cells: PDGF-CC forms and mutants coexpressed with tPA. It is filed as cell-based, human. Particulars: over-expression of free CUB domain (CUBc-myc) with full-length PDGF-C and tPA in COS-1 cells. The text has this: The structural requirements for recognition of full-length PDGF-CC as a substrate for tPA were mapped by analysis of several mutated forms of PDGF-CC using the co-transfection assay. The mutants of PDGF-CC included a chimeric form of PDGF-C carrying the CUB domain from PDGF-D and the hinge region and growth factor domain of PDGF-C (mutant PDCUBPC), and several truncation mutants lacking the CUB domain and increasing parts of the hinge region (schematically illustratrated in FIG. 6A). All mutants were properly expressed in transfected COS-1 cells, formed disulfide-linked dimers (data not shown), and were efficiently secreted, except truncation mutant Δ190 that was expressed at a lower level in the conditioned medium (FIG. 6B).
A conserved site of four amino acids containing three basic amino-acid residues (amino-acid residues -R-K-S-R-) was previously identified as a potential site for proteolytic activation of latent PDGF-CC (Li et al, 2000). […]
To test the endogenous expression of PDGF-CC, subconfluent AG1523 cells and primary fibroblast cultures were cultured in serum-free DMEM overnight. […] In the case of the primary cultures, total protein concentration was measured and normalized (Bradford, 1976). […] PDGF-C and PDGF-D were detected by immunoblotting using affinity-purified polyclonal rabbit antibodies against PDGF-C (Li et al, 2000) and PDGF-D (Bergsten et al, 2001), respectively. […]

The subject of test [3] is tPA-deficient fibroblasts. Nature of the test: WST-1 growth assay of primary fibroblasts in serum-free medium. In kind it is cell-based, mouse. Particulars: 50 ng/ml added to serum-free culture medium, 24 hours. How it is done:
It was observed that primary fibroblasts derived from tPA-deficient mice grew more slowly in culture than fibroblasts derived from wild-type animals, raising the possibility that activation of latent PDGF-CC by tPA generated autocrine and paracrine growth stimulatory loops for primary fibroblasts in culture. To analyze this effect, isolated wild-type and tPA-deficient fibroblasts were serum-starved overnight, and the growth of the cells during the next 24 hours was monitored using an enzyme-based viability assay (see Example 8, Materials and Methods).
(§1) To monitor cell growth, both the cell proliferation reagent WST-1 (Roche) and BrdU (Sigma) were used. A total of 0.4×10^4 (WST-1) or 1×10^4 (BrdU) wild-type and tPA-deficient fibroblasts were seeded in triplicate-hexaplicate, and after attachment they were serum-starved overnight. Serum-starved cells were counted (WST-1 seeding control) and alternatively incubated for 24 hours in serum-free medium supplemented with 1 mg/ml BSA, and 50 μM BrdU in the BrdU experiment, in the absence or presence of 50 ng/ml activated PDGF-CC or tPA protein (#116, American Diagnostica Inc.). Upon counting, WST-1 reagent was added and measured according to the manufacturer's protocol using an ELISA reader. […] Quantification of the BrdU-positive cells was performed by counting all cells along the vertical and horizontal diameters of all wells.
For orientation: Formazan colour is commonly taken as a measure of viable cells.

The subject of test [4] is wild-type and tPA-deficient fibroblasts. Nature of the test: BrdU incorporation in primary fibroblasts. In kind it is cell-based, mouse. As to conditions: 50 ng/ml, 24 hours BrdU labeling. How it is done:
Cell nuclei were visualized with 4′,6-diamidine-2′-phenylindole dihydrochloride (DAPI), and BrdU-labeled cells were determined by immunofluorescence using antibodies to BrdU (FIG. 7B).
as §1, with “reader. In the BrdU experiment, the cells were fixed in 4% paraformaldehyde in PBS for 30 min at room temperature and the DNA was denatured in 2M HCl for 20 min at room temperature and then blocked in 0.5% BSA, 0.5% Tween, and 10% goat serum in PBS.” for “reader.”
A general note: Uptake of a labelled nucleoside into DNA is a usual measure of proliferation.

A further test concerns the target T1, PDGFR-α (Mus musculus, UniProt P26618).
T1 construct: endogenous in cells; host or cells: primary mouse kidney and lung fibroblasts
The test can be described thus: PDGFR-α tyrosine phosphorylation in primary fibroblasts. In kind it is cell-based. As to conditions: 100 ng/ml activated PDGF-CC protein. How it is done:
It is known that constitutive activation of PDGFRs by PDGFs leads to receptor desensitization (Heldin and Westermark, 1999), and therefore it was investigated whether the differences observed in growth between the wild-type and tPA-deficient fibroblasts upon PDGF-CC treatment were due to differential activation of PDGFR-α. Recombinant PDGF-CC protein was applied onto the primary fibroblasts and receptor activation was measured as induction of PDGFR-α tyrosine phosphorylation (FIG. 7D, upper panel).
To monitor growth factor-induced tyrosine phosphorylation of PDGFR-α, serum-starved PAE cells stably expressing human PDGFR-α were incubated for 120 min on ice with conditioned medium from COS-1 cells transfected with full-length PDGF-C in the absence or presence of tPA. Alternatively, primary wild-type and tPA-deficient fibroblasts were stimulated with 100 ng/ml activated PDGF-CC protein. The cells were lysed as described previously (Li et al, 2000) and PDGFR-α was immunoprecipitated using a specific antiserum (Eriksson et al, 1992). Precipitated proteins were separated by SDS-PAGE under reducing conditions. Tyrosinephosphorylated receptors were detected by immunoblotting using an antiphosphotyrosine antibody (PY99, Santa Cruz). The membranes were stripped and reprobed using a polyclonal antibody against the C-terminal of the PDGFRs (CED) to detect receptor expression levels.

The conditions of test [5]: cornea pocket model; cited from earlier work.

Sequence of tPA (P00750 36-562): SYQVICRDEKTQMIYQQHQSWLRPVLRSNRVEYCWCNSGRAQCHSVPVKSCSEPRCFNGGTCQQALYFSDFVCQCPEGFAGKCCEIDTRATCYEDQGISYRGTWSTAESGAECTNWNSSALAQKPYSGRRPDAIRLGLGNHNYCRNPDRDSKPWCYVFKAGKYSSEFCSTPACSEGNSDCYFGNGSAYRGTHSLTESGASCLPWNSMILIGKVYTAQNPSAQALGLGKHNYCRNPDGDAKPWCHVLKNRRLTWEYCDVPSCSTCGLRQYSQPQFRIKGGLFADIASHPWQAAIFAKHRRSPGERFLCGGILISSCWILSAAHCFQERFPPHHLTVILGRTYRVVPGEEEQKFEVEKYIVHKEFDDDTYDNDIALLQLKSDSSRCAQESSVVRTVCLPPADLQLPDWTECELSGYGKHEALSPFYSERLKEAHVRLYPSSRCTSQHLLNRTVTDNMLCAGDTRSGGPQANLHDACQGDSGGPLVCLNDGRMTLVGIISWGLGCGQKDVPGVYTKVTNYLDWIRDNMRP
T1 sequence (P26618 25-1089): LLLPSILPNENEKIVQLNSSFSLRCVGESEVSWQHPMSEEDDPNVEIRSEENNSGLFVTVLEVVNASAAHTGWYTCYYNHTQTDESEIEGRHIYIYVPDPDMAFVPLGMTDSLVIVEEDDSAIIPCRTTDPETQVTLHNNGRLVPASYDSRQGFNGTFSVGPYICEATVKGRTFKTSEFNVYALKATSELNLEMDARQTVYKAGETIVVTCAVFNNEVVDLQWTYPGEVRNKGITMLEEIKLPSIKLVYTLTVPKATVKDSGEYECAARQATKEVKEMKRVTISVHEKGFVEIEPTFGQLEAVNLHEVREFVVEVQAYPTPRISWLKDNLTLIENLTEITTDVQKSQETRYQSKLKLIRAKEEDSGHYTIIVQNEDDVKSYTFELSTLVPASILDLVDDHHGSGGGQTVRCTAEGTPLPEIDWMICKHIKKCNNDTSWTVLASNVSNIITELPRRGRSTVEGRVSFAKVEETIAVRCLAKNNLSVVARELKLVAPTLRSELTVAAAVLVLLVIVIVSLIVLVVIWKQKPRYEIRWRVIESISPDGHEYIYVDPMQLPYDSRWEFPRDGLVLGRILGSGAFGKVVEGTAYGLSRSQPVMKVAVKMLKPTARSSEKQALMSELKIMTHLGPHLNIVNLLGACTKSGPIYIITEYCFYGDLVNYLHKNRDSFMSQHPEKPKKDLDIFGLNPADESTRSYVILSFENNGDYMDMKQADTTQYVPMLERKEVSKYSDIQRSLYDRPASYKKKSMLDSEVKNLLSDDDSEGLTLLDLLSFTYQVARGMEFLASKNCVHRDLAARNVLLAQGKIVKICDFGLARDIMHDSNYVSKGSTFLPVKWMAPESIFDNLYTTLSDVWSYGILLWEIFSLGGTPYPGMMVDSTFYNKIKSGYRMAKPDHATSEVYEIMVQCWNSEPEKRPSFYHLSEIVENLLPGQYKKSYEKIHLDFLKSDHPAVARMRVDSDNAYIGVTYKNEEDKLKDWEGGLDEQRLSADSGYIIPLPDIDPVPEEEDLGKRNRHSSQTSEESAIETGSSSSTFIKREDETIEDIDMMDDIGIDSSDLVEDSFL

B1: CUB domain: free CUB domain of PDGF-C; recombinant His6-tagged (residues 23-163) or c-myc-tagged (residues 1 to 165) (protein)
chain: ESNLSSKFQFSSNKEQNGVQDPQHERIITVSTNGSIHSPRFPHTYPRNTVLVWRLVAVEENVWIQLTFDERFGLEDPEDDICKYDFVEVEEPSDGTILGRWCGSGTVPGKQISKGNQIRIRFVSDEYFPSEPGFCIHYNIVHHHHHH
Regarding B1, in the test with tPA [1], the “binding of tPA in pull-down” value is listed as “both domains were able to interact with tPA”. Besides, the “competition for tPA-mediated processing of latent PDGF-CC” value in the test on tPA [2] was “efficiently competed for the interaction and processing of latent PDGF-CC by tPA”.

B2: activated PDGF-CC: activated PDGF-CC protein, growth factor without CUB domains (protein)
chain: GRKSRVVDLNLLTEEVRLYSCTPRNFSVSIREELKRTDTIFWPGCLLVKRCGGNCACCLHNCNECQCVPSKVTKKYHEVLQLRPKTGVRGLHKSLTDVALEHHEECDCVCRGSTGG
For the molecule B2, the “rescue of growth of tPA-deficient fibroblasts” value in test [3] is “allowed the cells to grow similar to the wild-type fibroblasts”. The “BrdU incorporation in tPA-deficient cells” value in test [4] (serum-starved tPA-deficient fibroblasts) is on record as “strongly stimulated BrdU incorporation in the tPA-deficient cells”. Besides, the “BrdU incorporation in wild-type cells” value in test [4] (serum-starved wild-type fibroblasts) is recorded as “had less effect on wild-type cells”. For the same molecule, in the test with PDGFR-α, the “induction of PDGFR-α tyrosine phosphorylation, tPA-deficient versus wild-type fibroblasts” value is recorded as “more pronounced in the tPA-deficient cells as compared to wild type”. Besides, the neoangiogenesis result in test [5] was “strong inducer of neoangiogenesis”.
